The text below walks through data of publication PMC6628420.

In this assay the target is CD11b, cellular receptor of LukAB, on PMNs (HL-60 cells differentiated with DMSO) (human (endogenous in HL-60)) (UniProt P11215).
Regarding “LukAB heterodimer LukA D39A / LukB R23E (complex)”, the reversal of the toxicity of 0.42 nM LukABWT on PMNs by the mutant (0.4 pM-13 nM), set up as competition with LukABWT for receptor binding; mutant/WT molar ratio at 50% reversal (mutant/WT molar ratio) amounted to 0.17.

With “LukAB heterodimer LukA D39R / LukB R23E (complex)”, the reversal of the toxicity of 0.42 nM LukABWT on PMNs by the mutant (0.4 pM-13 nM), set up as competition with LukABWT for receptor binding; mutant/WT molar ratio at 50% reversal (mutant/WT molar ratio) was above 30.

Regarding “LukAB heterodimer LukA wild type / LukB K12A/K19A/R23A (complex)”, the reversal of the toxicity of 0.42 nM LukABWT on PMNs by the mutant (0.4 pM-13 nM), set up as competition with LukABWT for receptor binding; mutant/WT molar ratio at 50% reversal (mutant/WT molar ratio) is above 30.

On to “LukAB heterodimer LukA wild type / LukB R23E (complex)”, for which the reversal of the toxicity of 0.42 nM LukABWT on PMNs by the mutant (0.4 pM-13 nM), set up as competition with LukABWT for receptor binding; mutant/WT molar ratio at 50% reversal (mutant/WT molar ratio) worked out at 0.64.

Consider “LukAB heterodimer LukA wild type / LukB with the N-terminal 30 residues of HlgB (complex)”, for which the reversal of the toxicity of 0.42 nM LukABWT on PMNs by the mutant (0.4 pM-13 nM), set up as competition with LukABWT for receptor binding; mutant/WT molar ratio at 50% reversal (mutant/WT molar ratio) is 0.18.
